According to patent US4829052A, “Serine protease inhibitors” (Monsanto Company, priority 1987, dated 1989):
“Also recorded” adds a separate entry of the source.

What was measured:
Type in all cases: biochemical
bovine trypsin = biological target: T1, bovine trypsin (Bos taurus, UniProt P00760); experiment: Trypsin assay (spectrophotometric, N-Benzoyl-L-arginine p-nitroanilide substrate); conditions: for Inhibitory Activity Trypsin: inhibitor/protease ratio between about 10/1 and 50/1; for inhibition of trypsin (in words): text discussion of Table III
T1 sequence (P00760 24-246): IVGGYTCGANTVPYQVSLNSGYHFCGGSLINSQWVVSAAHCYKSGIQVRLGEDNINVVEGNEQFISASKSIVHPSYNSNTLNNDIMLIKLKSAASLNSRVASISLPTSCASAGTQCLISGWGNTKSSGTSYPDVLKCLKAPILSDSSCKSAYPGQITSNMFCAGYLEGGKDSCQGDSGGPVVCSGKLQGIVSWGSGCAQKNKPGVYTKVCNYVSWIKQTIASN
Description: (§1) The inhibitory activity of the polypeptides of the present invention can be easily assayed using in vitro assays. In these types of spectrophotometric assays the activity of the serine protease is measured toward an appropriate p-nitroanilide substrate in the presence and absence of the peptide inhibitor. The enzyme catalyzed hydrolysis of the peptide p-nitroanilide substrate produces p-nitroanaline which results in an increase in absorbance which is monitored in the range of 405 to 410 nm. The rate of increase in absorbance is a measure of the enzymatic activity and the decrease in this rate relative to a suitable control is used to ascertain inhibition. The general assay procedure and details of the particular assays employed in the examples are provided in the Appendix following the examples. It is also possible to test the polypeptides in a functionally oriented assay that emulates in vivo conditions. Such an inhibition assay for elastase is also described in the Appendix.
(§2) Generalized Protocol Spectrophotometric Assays:
(§3) (1) Pipette 100 μl of enzyme solution into a disposable polystyrene cuvette (1 cm optical path length).
(§4) (2) Add (1900-X) μl of bufferto the cuvette, where X is the volume of test solution in microliters that is added in the next step.
(§5) Add X μl of test solution to the cuvette, where X ranges from 0 μl for the control to a maximum of about 500 μl. Incubate the solution for a period of 1 to 5 minutes at ambient temperature.
(§6) (4) Add 100 μl of substrate solution to the cuvette. Mix the contents by covering the cuvette with a piece of paraffin film and repeatedly inverting for a period of 5 to 15 seconds.
(§7) (5) Record the change in absorbance for about 5 minutes at either 405 or 410 nm, depending on the assay, with a spectrophotometer equipped with a suitable recording device.
(§8) The percent inhibition is calculated from the formula [formula] where (ΔA/min) is the initial rate of absorbance change.
(§9) (7) For more accurate quantitative determinations temperature control of the cuvette holders and the reagent solutions can be instituted.
(§10) (8) The test solution can be crude oxidized peptide prepared as described above, fractions from a chromatographic separation or purified polypeptides.
(A) Buffer Solution - Triethanolamine buffer consisting of 200 mM triethanolamine, 20 mM CaCl2, pH 7.8
(B) Substrate solution - Dissolve 50 mg of N-Benzoyl-L-arginine p-nitroanilide in 50 ml of water. Sonicate for 5 to 10 minutes to completely dissolve the solid material.
(C) Enzyme solution - Dissolve 1 mg of bovine trypsin in 10 ml of 0.001N HCl stored on ice during the assay.
(§11) (D) Test Solution - See general protocol, number 8.
(§12) Procedure: Use the above solutions in the general protocol described above.

bovine chymotrypsin = bovine chymotrypsin (Bos taurus, UniProt P00766); experiment: Chymotrypsin assay (spectrophotometric, p-nitroanilide substrate); conditions: for Inhibitory Activity Chymotrypsin: inhibitor/protease ratio between about 10/1 and 50/1; for inhibition of chymotrypsin (in words): text discussion of Table III
Description: as §1, §2, §3, §4, §5, §6, §7, §8, §9, §10
(A) Buffer solution - triethanolamine buffer- See trypsin assay.
(B) Substrate Solution - Dissolve 25 mg of 3-carbomethoxypropionyl-L-arginyl-L-prolyl-L-tyrosine p-nitroanilide (Product No. S-2586, KabiVitrum AB, Stockholm, Sweden) in 23.6 ml of water
(C) Enzyme solution - Dissolve 1 mg of bovine chymotrypsin in 4 ml of 0.001N HCl. Prepare the final dilution by combining 0.1 ml of the stock chymotrypsin solution and 10 ml of 0.001N HCl. Store on ice or at 4° C.
Procedure: Use the above solutions in the general protocol
(2) See note 1 of the cathepsin G assay.
(3) 0.1M Tris-HCl, pH 7.8, 20 mM CaCl2, 0.05% triton X-100 can be substituted for the triethanolamine buffer.

Human Sputum Cathepsin G = biological target: T2, Human Sputum Cathepsin G (Homo sapiens, UniProt P08311); experiment: Cathepsin G assay (spectrophotometric, p-nitroanilide substrate); conditions: for Inhibitory Activity Cathepsin G: inhibitor/protease ratio between about 10/1 and 50/1; for inhibition of cathepsin G (in words): text discussion of Table III
T2 construct: Human Sputum Cathepsin G (Product No. SG-45, EPC, Inc., Pacific, Mo.); purchased EPC, Inc., Pacific, Mo; SG-45; host or cells: human sputum
T2 sequence (P08311 21-255): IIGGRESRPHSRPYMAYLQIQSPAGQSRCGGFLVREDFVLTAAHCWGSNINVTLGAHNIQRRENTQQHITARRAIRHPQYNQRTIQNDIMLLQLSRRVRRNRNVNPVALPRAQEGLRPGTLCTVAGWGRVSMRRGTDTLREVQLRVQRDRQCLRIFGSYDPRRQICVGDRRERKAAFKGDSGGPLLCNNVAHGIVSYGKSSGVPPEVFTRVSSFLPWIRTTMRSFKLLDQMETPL
Description: as §1, §2, §3, §4, §5, §6, §7, §8, §9, §10
(A) Buffer Solution - Tris-NaCl buffer consisting of 0.1M Tris-HCl, pH 8.0 containing 0.5M NaCl and 0.03% sodium azide.
(B) Substrate solution - Dissolve 50 mg of N-succinyl-L-alanyl-L-alanyl-L-prolyl-L-phenylalanine p-nitroanilide in 1 ml of 1-methyl-2-pyrrolidinone and dilute to 50 ml with Tris-NaCl buffer.
(C) Enzyme Solution - Human Sputum Cathepsin G (Product No. SG-45, EPC, Inc., Pacific, Mo.). Dissolve 1 mg of protein per 1 ml of Tris-NaCl buffer. Store on ice or at 4° C.
(D) Test Solutions - See the general protocol, number 8.
Procedure: Use the above solution in the general protocol described above. […]

Human Sputum Elastase = biological target: T3, Human Sputum Elastase (Homo sapiens, UniProt P08246); experiment: Elastase assay (spectrophotometric, p-nitroanilide substrate); conditions: for Inhibitory Activity Elastase: inhibitor/protease ratio between about 10/1 and 50/1; for inhibition of human elastase (in words): text discussion of Table III
T3 construct: Human Sputum Elastase, product No. SE-563 EPC, Inc., Pacific, Mo; USA, Lot 85701; purchased EPC, Inc., Pacific, Mo; USA SE-563; host or cells: human sputum
T3 sequence (P08246 30-267): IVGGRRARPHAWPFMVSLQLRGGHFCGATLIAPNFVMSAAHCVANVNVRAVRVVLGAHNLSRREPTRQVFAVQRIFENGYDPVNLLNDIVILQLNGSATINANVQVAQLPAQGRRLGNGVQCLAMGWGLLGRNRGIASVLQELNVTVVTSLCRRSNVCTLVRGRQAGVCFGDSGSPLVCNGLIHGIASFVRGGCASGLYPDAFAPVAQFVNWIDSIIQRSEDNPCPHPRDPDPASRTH
Description: as §1, §2, §3, §4, §5, §6, §7, §8, §9, §10
(A) Buffer Solution - Tris-NaCl buffer consisting of 0.1M Tris-HCl pH 7.5 at 25° C. containing 0.5M NaCl and 0.01% (w/v) NaNs.
(B) Substrate Solution - Dissolve 45.5 mg of N-succinyl-L-alanyl-L-alanyl-L-alanine p-nitroanilide in 1 ml of 1-methyl-2-pyrrolidinone. Add 32 ml of Tris-NaCl buffer.
(C) Enzyme Solution - Human Sputum Elastase, product No. SE-563 EPC, Inc., Pacific, Mo. USA, Lot 85701. Dissolve 1 mg in 1 ml of Tris-NaCl buffer. Store on ice or at 4° C.
as §11, §12
(1) Buffer Solution - Tris-NaCl buffer -see Method 1.
(2) Substrate Solution - Dissolve 50 mg of 3-carbomethoxypropionyl-L-alanyl-L-alanyl-L-[…]-L-valine p-nitroanilidein 1 ml of 1-methyl-2-pyrrolidinone. Add 32 ml of Tris-NaCl buffer.
(3) Enzyme Solution - Human sputum elastase, product No. SE-563, EPC, inc. Pacific, Mo. USA, Lot 85071. Prepare a sample at a concentration of 0.01 mg per ml of Tris-NaCl buffer. Store on ice.
(4) Test Solution - general protocol, number 8.
Procedure: Use the above solutions in the general protocol.
(1) Porcine pancreatic elastase may be substituted for human elastase when it is desired to test for an inhibitor of the former.
(2) The activity of an elastase preparation can be calculated as [formula]
(3) The Tris-NaCl buffer also can be pH 8.0 with 0.03% sodium azide. Results should be compared at a single pH.

Substance	Inhibitory Activity Trypsin (bovine trypsin)	Inhibitory Activity Chymotrypsin (bovine chymotrypsin)	Inhibitory Activity Cathepsin G (Human Sputum Cathepsin G)	Inhibitory Activity Elastase (Human Sputum Elastase)	inhibition of human elastase (in words) (Human Sputum Elastase)	inhibition of trypsin (in words) (bovine trypsin)	inhibition of chymotrypsin (in words) (bovine chymotrypsin)	inhibition of cathepsin G (in words) (Human Sputum Cathepsin G)
RVCGVILMKCKKDSDCLAECVCLEHGYCG (RVCGVILMKCKKDSDCLAECVCLEHGYCG) [Peptide 46]	- (Represents less than 10% inhibition)	- (Represents less than 10% inhibition)	- (Represents less than 10% inhibition)	++ (Represents greater than 50% inhibition)	continue to be inhibitors of human elastase	–	–	–
R V C Hyp VILMKCKKDSDCLAECVCLEHGYCG [Peptide 47]	- (Represents less than 10% inhibition)	- (Represents less than 10% inhibition)	- (Represents less than 10% inhibition)	++ (Represents greater than 50% inhibition)	continue to be inhibitors of human elastase	–	–	–
RVCPAILMKCKKDSDCLAECVCLEHGYCG (RVCPAILMKCKKDSDCLAECVCLEHGYCG) [Peptide 36]	+ (Represents between 10% and 50% inhibition)	++ (Represents greater than 50% inhibition)	+ (Represents between 10% and 50% inhibition)	++ (Represents greater than 50% inhibition)	continue to be inhibitors of human elastase	–	–	–
RVCPFILMKCKKDSDCLAECVCLEHGYCG (RVCPFILMKCKKDSDCLAECVCLEHGYCG) [Peptide 15]	++ (Represents greater than 50% inhibition)	++ (Represents greater than 50% inhibition)	++ (Represents greater than 50% inhibition)	++ (Represents greater than 50% inhibition)	inhibited	inhibited	Inhibition of chymotrypsin and cathepsin G was observed	Inhibition of chymotrypsin and cathepsin G was observed
RVCPGILMKCKKDSDCLAECVCLEHGYCG (RVCPGILMKCKKDSDCLAECVCLEHGYCG) [Peptide 51]	- (Represents less than 10% inhibition)	- (Represents less than 10% inhibition)	- (Represents less than 10% inhibition)	++ (Represents greater than 50% inhibition)	is a human elastase inhibitor; also recorded: less effective inhibitor of elastase than peptides 1 or 8	–	–	–
RVCPIILMKCKKDSDCLAECVCLEHGYCG (RVCPIILMKCKKDSDCLAECVCLEHGYCG) [Peptide 1]	- (Represents less than 10% inhibition)	- (Represents less than 10% inhibition)	- (Represents less than 10% inhibition)	++ (Represents greater than 50% inhibition)	–	–	–	–
RVCPLILMKCKKDSDCLAECVCLEHGYCG (RVCPLILMKCKKDSDCLAECVCLEHGYCG) [Peptide 29]	++ (Represents greater than 50% inhibition)	++ (Represents greater than 50% inhibition)	+ (Represents between 10% and 50% inhibition)	++ (Represents greater than 50% inhibition)	continue to be inhibitors of human elastase	–	–	–
RVCPMILMKCKKDSDCLAECVCLEHGYCG (RVCPMILMKCKKDSDCLAECVCLEHGYCG) [Peptide 22]	++ (Represents greater than 50% inhibition)	++ (Represents greater than 50% inhibition)	+ (Represents between 10% and 50% inhibition)	++ (Represents greater than 50% inhibition)	inhibits	inhibits	inhibits	inhibits
RVCPRILMKCKKDSDCLAECVCLEHGYC (RVCPRILMKCKKDSDCLAECVCLEHGYC) [Control, comparative control, reference compound]	++ (Represents greater than 50% inhibition)	- (Represents less than 10% inhibition)	- (Represents less than 10% inhibition)	- (Represents less than 10% inhibition)	–	–	–	–
